# Measured values taken from patent US11407988B2, “Composition and uses thereof” (priority 2015, dated 2022).
# “And” between values parts separate entries of the source, which are not always exact repeats. Equal entries are not always repeated. Where two headings read alike, the source gives them in different places. Where a SMILES comes first, the peptide text is derived from it. [ ]: non-standard residue; d: D form. The star is where a group is joined. Sta = CC(C)C[C@H](N)[C@@H](O)CC(=O)O; Isovaleryl = CC(C)CC(=O)*
# B1: recombinant Thermitase 16: protease 16 cloned and heterologously expressed in Lactococcus lactis strain MG1363 (L. lactis strain 16), heat activated (protein)
# chain: YTPNDPYFSSRQYGPQKIQAPQAWDIAEGSGVKIAIVDTGVQSNHPDLAGKVVGGWDFVDNDSTPQDGNGHGTHCAGIAAAVTNNSTGIAGTAPKASILAVRVLDNSGSGTWTAVANGITYAADQGAKVISLSLGGTVGNSGLQQAVDYAWNKGSVVVAAAGNAGNTAPNYPAYYSNAIAVASTDQNDNKSSFSTYGSWVDVAAPGSSIYSTYPTSTYASLSGTSMATPHVAGVAGLLASQGRSASNIRAAIENTADKISGTGTYWAKGRVNAYKAVQY
# B2: protease 16: Thermitase (serine alkaline protease, EC 3.4.21.66) secreted by Thermoactinomyces sp. 16; mature amino acid sequence SEQ ID NO: 1 (protein)
# chain: YTPNDPYFSSRQYGPQKIQAPQAWDIAEGSGVKIAIVDTGVQSNHPDLAGKVVGGWDFVDNDSTPQDGNGHGTHCAGIAAAVTNNSTGIAGTAPKASILAVRVLDNSGSGTWTAVANGITYAADQGAKVISLSLGGTVGNSGLQQAVDYAWNKGSVVVAAAGNAGNTAPNYPAYYSNAIAVASTDQNDNKSSFSTYGSWVDVAAPGSSIYSTYPTSTYASLSGTSMATPHVAGVAGLLASQGRSASNIRAAIENTADKISGTGTYWAKGRVNAYKAVQY
# modifications: Thermoactinomyces sp. 16
# Assays:
# [1] = test system: purified protease of Thermoactinomyces sp. 16 (protease 16); format: biochemical; details: for Inhibition of the enzyme (in words): 10 mM inhibitor
# BSA (1%, w/v) [2] = assay: Effect of pH on protease activity of original and recombinant proteinase 16; format: biochemical; details: 0.1M Universal buffer, 30 min, 40 C
# [3] = biological target: PrP^Sc, RML scrapie strain (Mus musculus, UniProt P04925); details: pH 7
# [4] = test system: bovine serum albumin (BSA); assay: Protease assay of purification steps of protease 16 (BSA, 0.1M CAPS pH 11.0, 40° C.); format: biochemical
# Text: The secreted protease was purified from cell free supernatant by (NH4)2SO4 (0-60%) fractionation followed by affinity chromatography on Bacitricin-Sepharose 4B according to the quantities shown in Table 3 below.
# The first step was ammonium sulphate (0-60%) fractionation. To express the final ammonium sulphate concentration as % ammonium sulphate saturation the Green and Hughes calculations were used. The precipitate obtained after fractionation was suspended in 0.02M HEPES buffer, pH 7.0 and was dialysed against water for 24 h. The second step used was affinity chromatography on bacitracin-Sepharose 4B using a modification of the method of Stepanov and Rudenskaya. Bacitracin-Sepharose 4B was equilibrated with 0.04M Tris/HCL, pH 7.9. Enzyme solution in 0.04M Tris/HCL pH 7.9 was applied to the column and the column was washed with the same buffer to remove all unbound protein. […] The propan-2-ol and NaCl were removed from the protease solution by dialysis.
# [5] = biological target: PrP (PrP^C and PrP^Sc) in N2a22L20 lysate, 22 L scrapie strain (Mus musculus, UniProt P04925); details: pH 7
# [6] = biological target: PrP (PrP^C and PrP^Sc) in GTK lysate, chandler scrapie isolate (Mus musculus, UniProt P04925); details: pH 7
# [7] = biological target: PrP (PrP^C and PrP^Sc) in GT22L lysate, 22 L scrapie strain (Mus musculus, UniProt P04925); details: pH 7
# PrP^Sc, BSE strain 301V = PrP^Sc, BSE strain 301V (Mus musculus, UniProt P04925); details: pH 7
# [8] = biological target: pK resistant prion material (PrP^Sc) (Mus musculus, UniProt P04925)
# BSA (1%, w/v) [9] = assay: Effect of pH and temperature on protease activity
# [10] = 10 mM reagent, purified protease 16
molecule,measurement,setting,value
O=S(=O)(F)Cc1ccccc1 [Phenylmethylsulfonyl fluoride],Inhibition of the enzyme (in words),[1],significantly inhibited
same,"Residual protease activity (% of control, no reagent) (10 mM)",[1]; [10],"5.4 % of control, no reagent"
CC(=O)N[C@@H](CC(C)C)C(=O)N[C@@H](CC(C)C)C(=O)N[C@H](C=O)CCCNC(=N)N [Leupeptin],"Residual protease activity (% of control, no reagent) (10 mM)",[1],"56.8 % of control, no reagent"
CC(C)CC(=O)N[C@H](C(=O)N[C@H](C(=O)N[C@@H](CC(C)C)[C@@H](O)CC(=O)N[C@@H](C)C(=O)N[C@@H](CC(C)C)[C@@H](O)CC(=O)O)C(C)C)C(C)C [Pepstatin] (Isovaleryl-VV[Sta]A[Sta]-OH),"Residual protease activity (% of control, no reagent) (10 mM)",[1],"97.6 % of control, no reagent"
CC(C)C[C@H](NC(=O)[C@@H](O)[C@H](N)Cc1ccccc1)C(=O)O [Bestatin],"Residual protease activity (% of control, no reagent) (10 mM)",[1],"92.6 % of control, no reagent"
O=C(O)CN(CCN(CC(=O)O)CC(=O)O)CC(=O)O [Ethylenediaminetetraacetic acid],"Residual protease activity (% of control, no reagent) (10 mM)",[1],"99.6 % of control, no reagent"
Cl.NCCc1ccc(S(=O)(=O)F)cc1 [Pefabloc],Inhibition of the enzyme (in words),[1],significantly inhibited
same,"Residual protease activity (% of control, no reagent) (10 mM)",[1]; [10],"2.9 % of control, no reagent"
B1,Activity levels of original versus recombinant protease at the same pHs,"BSA (1%, w/v) [2]",little difference in activity levels
same,Removal of RML prion strain as detected by western blot,[3],remove all traces of the RML prion strain
B2,Specific activity (units/mg protein),[4]; purification step: (NH4)2SO4 (0-60%) fractionation,0.79 units/mg protein
same,Specific activity (units/mg protein),[4]; purification step: Bacitricin-Sepharose 4B,3.56 units/mg protein
same,Specific activity (units/mg protein),[4]; purification step: Cell free supernatant,0.05 units/mg protein
same,Activity levels of original versus recombinant protease at the same pHs,"BSA (1%, w/v) [2]",little difference in activity levels
same,"Detectable PrP by western blot, antibody 7A12",[5],complete loss of detectable PrP
same,"PrP signal by western blot, antibodies 8H4, 11G5 and GE8",[5],No signal
same,"Detectable PrP by western blot, antibody 7A12",[6],complete loss of detectable PrP
same,"Detectable PrP by western blot, antibody 7A12",[7],complete loss of detectable PrP
same,Time to degrade 301V brain material,"PrP^Sc, BSE strain 301V",≤ 15 min
same,Time to degrade 301V from mouse brain homogenate,"PrP^Sc, BSE strain 301V",≤ 15 min
same,Removal of RML prion strain as detected by western blot,[3],remove all traces of the RML prion strain
same,Detectable prion signal,[8],complete loss of detectable prion signal
same,Time to degrade the prion,[8],≤ 15 min
same,pH of optimal activity,"BSA (1%, w/v) [9]; BSA in 0.1M Universal buffer, pHs 2.0-12.0",11.0 and > 8.0
same,Temperature of optimal activity,"BSA (1%, w/v) [9]; assay at 20-90° C.",50 °C
same,Activity at the assay pH of pH 7.0,"BSA (1%, w/v) [9]; pH 7.0",retains significant activity
